This is an account of results in paper PMC9045712 (Science Advances, 2022).

This assay has as its target recombinant MCM2 (minichromosome maintenance protein 2), from 6x His-FLAG-TEV-MCM2 (mouse, UniProt P97310 1-904). In words: co-IP.

Sequence of recombinant MCM2 (minichromosome maintenance protein 2), from 6x His-FLAG-TEV-MCM2 (P97310 whole entry): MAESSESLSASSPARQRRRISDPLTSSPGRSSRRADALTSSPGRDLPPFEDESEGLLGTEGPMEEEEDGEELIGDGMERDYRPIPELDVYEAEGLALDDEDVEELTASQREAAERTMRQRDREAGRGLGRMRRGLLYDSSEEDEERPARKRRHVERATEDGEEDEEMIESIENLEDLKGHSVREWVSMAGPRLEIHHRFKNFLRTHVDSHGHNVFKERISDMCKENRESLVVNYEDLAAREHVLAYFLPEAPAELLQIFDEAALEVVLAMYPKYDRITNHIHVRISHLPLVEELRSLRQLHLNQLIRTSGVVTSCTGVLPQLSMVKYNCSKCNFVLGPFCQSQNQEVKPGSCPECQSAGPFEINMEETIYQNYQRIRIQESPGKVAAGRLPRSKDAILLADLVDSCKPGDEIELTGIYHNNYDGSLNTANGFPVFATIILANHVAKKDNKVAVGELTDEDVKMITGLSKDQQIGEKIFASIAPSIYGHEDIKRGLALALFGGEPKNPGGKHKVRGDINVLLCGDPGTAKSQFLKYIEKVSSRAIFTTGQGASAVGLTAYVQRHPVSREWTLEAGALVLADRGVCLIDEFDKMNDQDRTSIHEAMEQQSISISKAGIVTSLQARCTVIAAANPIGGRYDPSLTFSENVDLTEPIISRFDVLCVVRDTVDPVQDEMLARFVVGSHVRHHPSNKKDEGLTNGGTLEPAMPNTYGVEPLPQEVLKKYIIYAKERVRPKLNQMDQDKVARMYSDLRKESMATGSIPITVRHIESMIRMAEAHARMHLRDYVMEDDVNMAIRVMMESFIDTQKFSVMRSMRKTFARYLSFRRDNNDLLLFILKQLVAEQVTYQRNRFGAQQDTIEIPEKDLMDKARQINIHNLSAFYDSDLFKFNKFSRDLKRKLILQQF

B1: recombinant NPM1 (nucleophosmin), from 6x His-FLAG-TEV-NPM1 (natural protein)
chain: MEDSMDMDMSPLRPQNYLFGCELKADKDYHFKVDNDENEHQLSLRTVSLGAGAKDELHIVEAEAMNYEGSPIKVTLATLKMSVQPTVSLGGFEITPPVVLRLKCGSGPVHISGQHLVAVEEDAESEDEDEEDVKLLGMSGKRSAPGGGNKVPQKKVKLDEDDEDDDEDDEDDEDDDDDDFDEEETEEKVPVKKSVRDTPAKNAQKSNQNGKDLKPSTPRSKGQESFKKQEKTPKTPKGPSSVEDIKAKMQASIEKGGSLPKVEAKFINYVKNCFRMTDQEAIQDLWQWRKSL
As to B1, the binding result is “binds”.
